Assay results reported in the supplement of paper PMC12042874.
± gives the uncertainty stated by the source.

Assay: amyloid nucleation score (Sup35N fusion, yeast selection) (log enrichment); library NNK2; higher = more nucleation; inactive = no reads after selection
Summary of the method: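 On medium lacking adenine and uracil, psi-negative yeast expressing peptides of 20 random codons fused to Sup35N were grown 7 days at 30°C after a 24-hour induction with 100 μM copper sulfate. Illumina sequencing of input and output plasmid inserts gave the reads, and sequences under 100 input reads were excluded. The nucleation score is the DiMSum log enrichment of output over input reads, centred on the mode score of non-aggregating sequences.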

Substance	amyloid nucleation score
VMRAMFSRAPFGPRNSSPLN	0.417 ± 0.37
VMRRVVKKQSWYLIKGLSM	0.802 ± 0.32
VMSFHWCVVSSVPWDCQACH	3.93 ± 0.1
VMVDMGGWHEAWLVTSIRWS	0.889 ± 0.3
VMYRCSRSALNLHVRRNWRW	0.455 ± 0.65
VNFNMALDNYFSNFEYRVRN	-1.17 ± 0.35
VNFNQSRCVDYVGILVIGG	-0.248 ± 0.28
VNGWDWQRYLRILKCFVVY	0.615 ± 0.36
VNIERGFLRLKRLD	-0.316 ± 1.1
VNKSSERNESIGRFRTCYRR	0.345 ± 0.8
VNNGLPDCFSLRYAVHPMRL	-0.526 ± 0.64
VNNGSMFSRGDWCVVLYPTW	3.45 ± 0.077
VNQFNVIIKD	3.33 ± 0.1
VNSEPDTLEGNENWYMGTRC	-0.125 ± 0.49
VNTSFATFSSVSLEGLLSMV	-0.595 ± 0.3
VNVEYSSMHKLCAW	0.201 ± 0.46
VNVGKCNRTVGIWLLWKVNA	0.584 ± 0.44
VPLGECIPNFLSTYGGYVVS	-0.287 ± 0.33
VPNYLCGDTLPEYYETPPDH	0.224 ± 0.4
VPRKILFCLLACCRMRQACS	0.67 ± 0.33
VPSQRNWFC	0.007 ± 0.63
VPSSEYFIVFVCRPLLIVSL	inactive
VPSTIWMTR	0.585 ± 0.38
VPWSLGLCSIFRSFK	2.38 ± 0.16
VQNLMYIVISPFDRYGRCGR	9.735 ± 0.048

Substance	amyloid nucleation score
VQPYSILNFRMELKANRLEL	4.4 ± 0.052
VQVVLNSETSSCASLRCMTY	8.047 ± 0.029
VRANLGAGFRFKSETGDAS	0.861 ± 0.14
VRFKYIYHTGLDDVAVNQY	-0.487 ± 0.55
VRFNGLVR	inactive
VRITVSSSLALWLVWLSHYR	-0.167 ± 0.27
VRKGHPYALELLSCYVGCQP	1.18 ± 0.25
VRKSHS	0.308 ± 0.42
VRLLMKLYNVPWVFH	inactive
VRLRGYSR	-0.439 ± 0.39
VRMSLTLSFQVLAYWEGFIK	-0.64 ± 0.49
VRRYYDSKSSIAYMLSIRVD	-0.447 ± 0.27
VRSGTLFARTKWEESSCHLF	0.641 ± 0.4
VRSVGGTLASPWRAYGC	0.527 ± 0.57
VRSYNVKYCSRRNLICGDG	-0.019 ± 0.41
VRTPEYSLHLVAS	-0.02 ± 0.61
VRWFCSVISF	2.39 ± 0.14
VRWMITHNFRVF	inactive
VRWTRFQALLYLK	inactive
VSASEEVPAFCCVTVAQ	-0.195 ± 0.61
VSEMPLLYR	0.769 ± 0.53
VSEWFGTKGWRLDYLCLYWL	-1.03 ± 0.64
VSFATRRSSNNILTGW	-0.557 ± 1.1
VSFKTSGKLCTAWFVWGLF	-0.108 ± 0.34
VSFSSNHGFAMVRLSWSQKR	5.49 ± 0.058

Substance	amyloid nucleation score
VSGCV	-0.865 ± 0.54
VSGDRLPSLFTCVRLLI	0.492 ± 0.41
VSIYLG	2.72 ± 0.15
VSKSFWGMGWSLRYSGFSRV	-0.262 ± 0.41
VSLKFLQGGAKDLRWSCGGE	1.78 ± 0.23
VSLRYRKRQWCYRVKWSITD	-1.36 ± 0.48
VSMAIFGSSNILYSIRSLLE	4.37 ± 0.082
VSMEKVRSDGMDRFASGFAA	0.361 ± 0.29
VSMRMVHGDYKWGRGCLIWI	-0.196 ± 0.45
VSNCLQGLYFCWSTGSRSRI	6.796 ± 0.03
VSNPSGVREPATTGGQSLAI	0.966 ± 0.47
VSRAFNFSRCRRKISPALQC	0.135 ± 0.33
VSRDIIKKVSASNRSMVSDS	0.163 ± 0.56
VSRKV	0.476 ± 0.23
VSRSSRWYNRIGMVRSVWNK	-0.139 ± 0.21
VSSLMMVGNRFLIISWTESV	2.55 ± 0.092
VSTKVGSSYEVVGYKVSHFG	-0.291 ± 0.76
VSVGWRVAVWWILKWEHLSR	9.541 ± 0.034
VSVHAVGLSYCMICFSLQNG	-0.611 ± 0.23
VSYDSNAILTFVNSYSRRRL	1.48 ± 0.19
VSYDVNIFWYPKKMS	inactive
VSYTHTETTPGLTSLWLVLM	6.89 ± 0.077
VSYVDESHFVNTKSDMPSVS	-0.392 ± 0.63
VTCNPHGLSHD	inactive
VTDCMSVRITLLMCSHGFKH	7.302 ± 0.063

Substance	amyloid nucleation score
VTGRAFNVTHGDAVEI	0.299 ± 0.39
VTIER	0.319 ± 0.33
VTIGLNDFLTWDRWFYVFYG	-0.873 ± 0.25
VTIYRGVRFGTFLPCRVRYG	1.48 ± 0.26
VTKHLGEARKLVLDQRLHWG	5.601 ± 0.047
VTKSRRFSFLYYVESLHNRC	4.25 ± 0.048
VTLGVWRPAFFAFWTPRKQY	-0.35 ± 1.1
VTLNTVDFPTGICKSSGARW	-0.236 ± 0.42
VTLSGYRVPLTLWDFGRCLC	-0.565 ± 0.35
VTQRWLAFERWKLPCSLPSH	0.02 ± 0.79
VTRSVSPHSSPYAFYYFNIS	inactive
VTVTFIAEHSIWPSVNNCFV	1.71 ± 0.15
VTVTYLWIC	1.88 ± 0.28
VVAKAGRSKFSGCSRATAGG	0.609 ± 0.41
VVAMDRCLQPVFLHLLSNNF	inactive
VVAPTKLLFKLPMALYVFVG	-0.299 ± 0.34
VVKRARLSWPFIARKYTSMV	0.116 ± 0.4
VVLTAVHFQCLLTLTVPIEV	-0.158 ± 0.48
VVQFSNGDLLILTGCPNTSK	0.449 ± 0.8
VVRKRSKMKLRRIHFSWLVW	0.744 ± 0.26
VVSSSTSFTAGTRVM	inactive
VVTLDRGLGHNRKGIQLGFR	0.547 ± 0.81
VVVNNGTGKVPFDDM	-0.952 ± 0.42
VVYSSRLRSDA	1.12 ± 0.4
VVYVVHFYFEYVGNVVARAK	inactive

Substance	amyloid nucleation score
VWCAYWKWLNLSRFNEITAR	-0.202 ± 0.23
VWGWD	-0.517 ± 0.78
VWIAKKGQRSRFQLRSGMCA	0.641 ± 0.74
VWQSYRFEEYFCICFQLASA	7.923 ± 0.031
VWRPRTFLLIHYVVKDKRTP	-0.507 ± 0.79
VWRTGRGYGRMWFLHISSMY	-0.207 ± 0.34
VWSPYKTV	-0.101 ± 1.1
VWYFIDFGPRKISVITWRYS	-0.642 ± 0.78
VWYYGSRKCHAVYLRNRMSV	-0.192 ± 0.41
VYAVDTTW	0.237 ± 0.29
VYFDNGISK	-1.6 ± 1.1
VYGYDKISHFVHSMNSNIVW	inactive
VYIVHVPSQFWL	6.37 ± 0.08
VYMCFSPVVNIMTVISFLAR	5.23 ± 0.093
VYMGEELVLVISVKDR	inactive
VYMSQWSKVFALFALNFKVN	1.84 ± 0.2
VYNLN	-0.181 ± 0.41
VYTLIIDW	-1.44 ± 0.78
VYWTKWGFLLVSSVKVLSLE	-0.14 ± 1
VYYAGSK	-0.562 ± 1.1
WAGRDHFWNIIYLDLSFVGE	3.77 ± 0.12
WAKSFHTALWASLMRGRKLH	-0.44 ± 0.54
WASFW	-0.725 ± 0.45
WCCLYDYFVDTGVLFIQDGS	-0.186 ± 0.2
WCGYCLTFLFPAQKQEAVLR	0.218 ± 0.35
